Assay results published in patent publication US20200239555A1 (STATEN BIOTECHNOLOGY B V, published 2020).
Changes are numbered by the printed parent chain. Where “and” joins values, the source holds several entries; their conditions need not be identical. Equal values may be shown once. One block for each binder: values may come before it.

Assays:
[1] = target: T1, biotinylated native human ApoC3 (human, UniProt P02656 21-99, biotinylated (site not stated)); assay: SPR, scFv-Fc over biotinylated ApoC3 on SA chip
T1 construct: also called biotinylated human ApoC3

[2] = target: T1, biotinylated native human ApoC3; assay: SPR, scFv-Fc over biotinylated ApoC3 on SA chip, pH 5.5
[3] = target: T1, biotinylated native human ApoC3; assay: SPR, scFv-Fc over biotinylated ApoC3 on SA chip, pH 7.4
[4] = target: T1, biotinylated native human ApoC3; assay: SPR, IgG1 over biotinylated ApoC3 on SA chip, pH 5.5; pH 5.5
[5] = target: T1, biotinylated native human ApoC3; assay: SPR, IgG1 over biotinylated ApoC3 on SA chip
Outline: (§1)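 Biotinylated native human ApoC3 was captured on a streptavidin chip (~500 RU), and IgG1 at 1-50 nM was injected in HBS-EP at pH 7.4, or at pH 5.5 with 10 mM citrate added. Dissociation was followed for 5 min. Double-referenced sensorgrams were fit to a 1:1 Langmuir model, and fits were considered not applicable when kd was below 1×10⁻⁶ 1/s.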

native human ApoC3 [6] = target: T2, native human ApoC3 (human, UniProt P02656 21-99); assay: SPR, IgG1 over ApoC3 on CM5 chip, pH 5.5
T2 construct: also called nhuApoC3; native huApoC3
Procedure: (§2) Based on the results in Example 1, test scFv-Fc antibodies were generated as human IgG₁ antibodies. An SPR-based assay was employed, in which human ApoC3 protein was immobilized on a CM5 chip, and the binding kinetics of test antibodies to the coated chip were measured at both pH 7.4 and pH 5.5. Briefly, a solution of 50 μg/ml of native human ApoC3 in 10 mM acetate buffer at pH 4.5 was prepared and injected until the surface density reached approximately 500 RU. 60 μl of each test antibody was diluted in HBS-EP buffer (GE, cat. nr. BR-1008-26; 0.010 M HEPES, 0.150M NaCl, 3 mM EDTA, 0.05% (v/v) surfactant P20, pH 7.4), and was injected at a concentration as described in Table 9. The test antibodies were passed through the flow cells at a flow rate of 30 μl/min, followed by an off-rate wash at pH 7.4 or pH 5.5 for 5 min. The resulting sensorgrams were analyzed using the BIAevaluation 4.1 software applying the Langmuir 1:1 binding model to derive binding kinetics. Data was zero adjusted and the reference cell sensorgrams were subtracted.

[7] = target: T1, biotinylated native human ApoC3; assay: SPR, IgG1 over biotinylated ApoC3 on SA chip, pH 7.4
Outline: as §1

native human ApoC3 [8] = target: T2, native human ApoC3; assay: SPR, IgG1 over ApoC3 on CM5 chip, pH 7.4
Procedure: as §2

[9] = target: T1, biotinylated native human ApoC3; assay: SPR, IgG1 over biotinylated ApoC3 on SA chip, pH 5.5
Outline: as §1

[10] = target: T1, biotinylated native human ApoC3; assay: SPR, IgG1 over biotinylated ApoC3 on SA chip, pH 7.4; pH 7.4; native ApoC3 on CM5 chip
native human ApoC3 [11] = target: T2, native human ApoC3; assay: SPR, IgG1 over ApoC3 on CM5 chip, pH 7.4; pH 7.4; IgG1 over native ApoC3 on CM5 chip
Procedure: as §2

[12] = target: T1, biotinylated native human ApoC3; assay: SPR, IgG1 over biotinylated ApoC3 on SA chip, pH 7.4; pH 7.4
Procedure: Biotinylated native human ApoC3 was captured on a streptavidin coated SPR chip (GE Healthcare, cat. nr. BR100032) at pH 7.4, in accordance with the method provided by Biacore, by injection of 20 μl 10 μg/ml biotinylated native human ApoC3 reaching the surface density of approximately 500 RU. 60 μL of test antibody in 1-50 nM range diluted in HBS-EP buffer (GE, cat # BR-1008-26; 0.010 M HEPES, 0.150M NaCl, 3 mM EDTA, 0.05% (v/v) surfactant P20, pH 7.4) was injected and passed through the flow cells at a flow rate of 30 μl/min, followed by an off-rate wash at pH7.4 for 5 min. After the dissociation, the flow cell surfaces were regenerated by injecting 10 μl of 10 mM NaOH/1 M NaCl and 10 μl of 10 mM glycine at pH1.5. The assay was repeated at pH5.5 using the same general protocol, where the running and sample dilution buffer was replaced by a HBS-EP buffer supplemented with citrate buffer to 10 mM final concentration and pH adjusted to 5.5.
The resulting sensorgrams were analyzed using the BIAevaluation 4.1 software using Langmuir 1:1 binding model to derive binding kinetics. Data was zero adjusted and the reference cell sensorgrams were subtracted. Sensorgrams were double referenced to no-analyte blank assay. Fitted parameters were considered not applicable if off-rate values were below the equipment's detection limit of kd: 1×10⁻⁶ 1/s.

T1 sequence (P02656 21-99): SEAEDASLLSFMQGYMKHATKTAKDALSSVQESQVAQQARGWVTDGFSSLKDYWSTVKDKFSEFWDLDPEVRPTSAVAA
T2 sequence (P02656 21-99): as above

B2: 5E5WT human IgG1 (antibody, V domains shown)
VH: QLQLVESGGGLVQPGGSLRLSCAASGFTFGTYSMRWVRQVPRKALEWVSSISTDGGGTAYRDSVKGRFTISRDNAKNTLYLQMNNLKPEDTAIYYCVIAGYSDWGQGTQVTVSS
VL: ATMLTQSPGSLSVVPGESASISCKTSQGLVHSDGKTYFYWFLQKPGQSPQQLIYQVSNRASGVPDRFTGSGSGTDFTLKISGVKAEDAGVYYCAQGTYYPHTFGSGTRLEIK
- Ka [4]: 2.01e+10 M⁻¹
- KD pH5.5/KD pH7.4 [5]: 0.97
- koff (native human ApoC3 [6]): 1.7e-05 s⁻¹
- kon (native human ApoC3 [6]): 340000 M⁻¹ s⁻¹
- Ka [7]: 1.95e+10 M⁻¹
- Kd [7]: 0.05 nM
- koff [7]: 1.79e-05 s⁻¹
- koff (native human ApoC3 [8]): 1.79e-05 s⁻¹
- kon (native human ApoC3 [8]): 350000 M⁻¹ s⁻¹
- Kd [9]: 0.05 nM
- koff [9]: 1.7e-05 s⁻¹
- kon [9]: 340000 M⁻¹ s⁻¹
- kon [10]: 350000 M⁻¹ s⁻¹

B3: 5E5VH5VH12_VL8 human IgG1 (antibody, V domains shown)
VH: B2 VH with S52H, A99H
VL: B2 VL with Q95H
- koff (native human ApoC3 [11]): 0.0028 s⁻¹
- kon (native human ApoC3 [11]): 125000 M⁻¹ s⁻¹

Results, then the binder that gave them:

- KD pH 5.5/KD pH 7.4 [1]: 7.4
- koff [2]: 0.00116 s⁻¹
- kon [2]: 269000 M⁻¹ s⁻¹
- Kd [3]: 0.58 nM
- koff [3]: 0.000221 s⁻¹
- kon [3]: 381000 M⁻¹ s⁻¹
B1: 5E5VHWT_VL8 scFv-Fc (scFv, part only; not given: Linker, domain order, Fc, V domains shown, not shown: another chain or arm of the molecule; a dimerising Fc or GST; small tags and cut ends)
VH: B2 VH
VL: B2 VL with Q95H

- KD pH5.5/KD pH7.4 [5]: 27.6
- koff (native human ApoC3 [6]): 0.000374 s⁻¹
- kon (native human ApoC3 [6]): 366000 M⁻¹ s⁻¹
- Kd [7]: 0.0171 nM and 0.02 nM
- koff [7]: 1.12e-05 s⁻¹
- kon [7]: 656000 M⁻¹ s⁻¹
- Ka [12]: 5.84e+10 M⁻¹
- koff (native human ApoC3 [8]): 1.38e-05 s⁻¹
- kon (native human ApoC3 [8]): 393000 M⁻¹ s⁻¹
- Ka [9]: 2.12e+09 M⁻¹
- Kd [9]: 0.472 nM and 0.47 nM
- koff [9]: 0.000143 s⁻¹
- kon [9]: 302000 M⁻¹ s⁻¹
B4: 5E5VH12_VLWT human IgG1 (antibody, V domains shown)
VH: B2 VH with A99H
VL: B2 VL
